Measured values: US20100047232A1 (Genentech, published 2010)
Each block holds one binder with its values, some of them ahead of it.

B1: AP-Nogo66 (ligand, human, UniProt Q9NQC3 1055-1120, looked up)
chain: RIYKGVIQAIQKSDEGHPFRAYLESEVAISEELVQKYSNSALGHVNCTIKELRRLFLVDDLVDSLK
notes: also called AO-Nogo66; not shown: FLAG tag at the N-terminus; human placental alkaline phosphatase (AP)

Columns and labels:
[1] = target: T1, Nogo Receptor (hit from the human cDNA library) (human, UniProt Q9BZR6 27-447); assay: expression cloning, AP-fusion bait (20-50 nM) on COS7 cells transfected with human cDNA pools
T1 construct: whole, on cells; also called NgR; NgR1
T1 sequence (looked up): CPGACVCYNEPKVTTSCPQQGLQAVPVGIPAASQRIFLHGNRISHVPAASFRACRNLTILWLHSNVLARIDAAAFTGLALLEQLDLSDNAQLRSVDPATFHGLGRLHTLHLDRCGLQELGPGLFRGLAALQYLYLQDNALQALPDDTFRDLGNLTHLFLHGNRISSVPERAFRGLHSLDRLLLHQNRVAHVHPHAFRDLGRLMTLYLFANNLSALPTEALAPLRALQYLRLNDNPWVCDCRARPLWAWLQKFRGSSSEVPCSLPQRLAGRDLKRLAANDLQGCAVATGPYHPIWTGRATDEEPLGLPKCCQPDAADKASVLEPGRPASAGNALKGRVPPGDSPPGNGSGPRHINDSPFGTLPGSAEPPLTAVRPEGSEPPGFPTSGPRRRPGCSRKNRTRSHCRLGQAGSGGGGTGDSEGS
Source text: (§1) To identify novel receptors for inhibitory myelin proteins, an expression cloning approach was taken. As bait, constructs were generated that fused Alkaline Phosphatase (AP) to the N- and/or C-terminus of the following characterized myelin inhibitors (human cDNA used): Nogo66, two additional inhibitory domains of NogoA (NiRD2 and NiG20) (Oertle T, J. Neurosci. 2003, 23(13): 5393-406), MAG, and OMgp. These constructs were transfected into 293 cells to produce conditioned medium (in DMEM/2% FBS) containing the bait proteins. The cDNA library used in the screen was comprised of full-length human cDNA clones in expression-ready vectors generated by Origene. These cDNAs were compiled, arrayed, and pooled. Pools of approximately 100 cDNA's were transiently transfected into COS7 cells.
(§2) In particular, on Day 1, COS7 cells were plated at a density of 85,000 cells per well in 12-well plates. On Day 2, 1 mg of pooled cDNA's were transfected per well using the lipid-based transfection reagent FuGENE 6 (Roche). On Day 4, screening was performed. […] The cells were washed once in AP Buffer (100 mM NaCl, 5 mM MgCl₂, 100 mM Tris pH 9.5), and incubated in chromogenic substrate (Western Blue, Promega), and analyzed for presence of reaction product one hour after incubation, and again after overnight incubation. […]

[2] = target: B1; assay: as above
Source text: as §1, §2

[3] = target: B1; assay: AP activity on transfected COS cells after incubation with AP-Nogo66
Method: In particular, on Day 1, COS7 cells were plated at a density of 85,000 cells per well in 12-well plates. On Day 2, 1 mg of pooled cDNA's were transfected per well using the lipid-based transfection reagent FuGENE 6 (Roche). On Day 4, screening was performed. Briefly, culture medium was removed from cells and replaced with 0.5 ml of 293 cell-conditioned medium containing AP-fusion bait proteins (20-50 nM). Cells were incubated at room temperature for 90 minutes. The cells were then washed 3 times with phosphate-buffered saline (PBS), fixed for 7 minutes with 4% paraformaldehyde, washed 3 times in HEPES-buffered saline (HBS), and heat inactivated at 65° C. for 90 minutes to destroy endogenous AP activity. The cells were washed once in AP Buffer (100 mM NaCl, 5 mM MgCl₂, 100 mM Tris pH 9.5), and incubated in chromogenic substrate (Western Blue, Promega), and analyzed for presence of reaction product one hour after incubation, and again after overnight incubation. Positive cells were identified by the presence of dark blue precipitate over the surface of the membrane. Positive pools were further broken down to identify individual positive clones by subsequent rounds of screening.
To confirm Nogo66 binding to LILRB2 (SEQ ID NO: 2), and to test if Nogo66 binds to the murine orthologue PirB (SEQ ID NO: 1), binding assays similar to those described in Example 1 were carried out. […]

Binder: B1
binding result [1]: binds

binding result [2]: binds
B2: LILRB2, transcript variant 1 (leukocyte immunoglobulin-like receptor, subfamily B, member 2) (receptor)
chain: QTGTIPKPTLWAEPDSVITQGSPVTLSCQGSLEAQEYRLYREKKSASWITRIRPELVKNGQFHIPSITWEHTGRYGCQYYSRARWSELSDPLVLVMTGAYPKPTLSAQPSPVVTSGGRVTLQCESQVAFGGFILCKEGEDEHPQCLNSQPHARGSSRAIFSVGPVSPNRRWSHRCYGYDLNSPYVWSSPSDLLELLVPGVSKKPSLSVQPGPVVAPGESLTLQCVSDVGYDRFVLYKEGERDLRQLPGRQPQAGLSQANFTLGPVSRSYGGQYRCYGAYNLSSEWSAPSDPLDILITGQIHGTPFISVQPGPTVASGENVTLLCQSWRQFHTFLLTKAGAADAPLRLRSIHEYPKYQAEFPMSPVTSAHAGTYRCYGSLNSDPYLLSHPSEPLELVVSGPSMGSSPPPTGPISTPAGPEDQPLTPTGSDPQSGLGRHLGVVIGILVAVVLLLLLLLLLFLILRHRRQGKHWTSTQRKADFQHPAGAVGPEPTDRGLQWRSSPAADAQEENLYAAVKDTQPEDGVEMDTRAAASEAPQDVTYAQLHSLTLRRKATEPPPSQEREPPAEPSIYATLAIH
notes: Expressed from full-length human cDNA in transfected COS7 cells; also called LIRB2; MIG10

binding result [3]: binds
B3: PirB (paired-immunoglobulin-like receptor B), mouse (receptor)
chain: SLPKPILRVQPDSVVSRWTKVTFFCEETIGANEYRLYKDGKLYKTVTKNKQKPANKAEFSLSNVDLRNAGQYRCSYSTQYKSSGYSDPLELVVTGDYWTPSLLAQASPVVTSGGYVTLQCESWHNDHKFILTVEGPQKLSWTQDSQYNYSTRKYHALFSVGPVTPNQRWICRCYSYDRNRPYVWSPPSESVELLVSGNLQKPTIKAEPGPVIASKRAMTIWCQGNLDAEVYFLHNEGSQKTQSTQTLQQPGNKGKFFIPSMTRQHAGQYRCYCYGSAGWSQPSDTLELVVTGIYEHYKPRLSVLPSPVVTAGGNMTLHCASDFHYDKFILTKEDKKFGNSLDTEHISSSRQYRALFIIGPTTPTHTGTFRCYGYFKNAPQLWSVPSDLQQILISGLSKKPSLLTHQGHILDPGMTLTLQCYSDINYDRFALHKVGGADIMQHSSQQTDTGFSVANFTLGYVSSSTGGQYRCYGAHNLSSEWSASSEPLDILITGQLPLTPSLSVKPNHTVHSGETVSLLCWSMDSVDTFILSKEGSAQQPLRLKSKSHDQQSQAEFSMSAVTSHLSGTYRCYGAQNSSFYLLSSASAPVELTVSGPIETSTPPPTMSMPLGGLHMYLKALIGVSVAFILFLFILIFILLRRRHRGKFRKDVQKEKDLQLSSGAEEPITRKGELQKRPNPAAATQEESLYASVEDMQTEDGVELNSWTPPEEDPQGETYAQVKPSRLRKAGHVSPSVMSREQLNTEYEQAEEGQGANNQAAESGESQDVTYAQLCSRTLRQGAAASPLSQAGEAPEEPSVYATLAAARPEAVPKDVEQ
notes: Expressed from cDNA in transfected COS7 cells; also called murine orthologue PirB
